Source: paper PMC4254552 (Developmental cell, 2014)

T1: HIM-3 part of the chimeric protein HIM-3:HTP-3 motif #4 (C. elegans, UniProt G5EBG0 1-276)
T1 sequence (looked up): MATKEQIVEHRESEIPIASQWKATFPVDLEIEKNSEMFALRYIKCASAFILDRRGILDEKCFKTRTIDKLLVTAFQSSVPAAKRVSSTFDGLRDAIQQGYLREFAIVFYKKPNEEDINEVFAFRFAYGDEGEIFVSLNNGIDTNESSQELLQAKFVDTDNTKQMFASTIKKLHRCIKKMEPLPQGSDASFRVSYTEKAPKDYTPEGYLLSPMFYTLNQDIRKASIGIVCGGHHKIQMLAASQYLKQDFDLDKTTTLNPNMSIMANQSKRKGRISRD

T2: HIM-3-6His (C. elegans, UniProt G5EBG0 1-291)
T2 sequence (looked up): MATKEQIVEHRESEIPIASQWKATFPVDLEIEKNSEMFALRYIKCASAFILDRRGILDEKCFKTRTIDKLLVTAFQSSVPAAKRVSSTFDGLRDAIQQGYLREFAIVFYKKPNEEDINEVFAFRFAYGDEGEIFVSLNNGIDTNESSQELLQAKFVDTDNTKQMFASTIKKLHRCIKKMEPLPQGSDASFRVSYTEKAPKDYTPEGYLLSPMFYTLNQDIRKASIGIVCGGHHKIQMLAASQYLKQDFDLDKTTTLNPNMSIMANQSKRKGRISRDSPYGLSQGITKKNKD

B1: HTP-2 (co-expressed; tag not told) (natural protein, C. elegans, UniProt Q95XC8 1-352, looked up)
chain: MAPLENNYNESLNKSKDAIDDKTWSKLFPSIVSDPDRSSNFMIRAIYVVFSAVLRQRNILEKEYFSKNYITENLSCMTLSFKNLRAHQIAQLLRAAGDATKDGFLKEISLVVTEHDGDVEAIEVFSMKFIYFENGGVVARLSTDNNDQEDPHFAELAQLRYEGAESVRDQMVTIVRSVQFLCTKVLEPLPAEFTANFRLKYTNDAPSNFRIDGFDDSSTFYTLPDGIQSVTIGHLRPGHHAAHMQCWSKSMSDSYAAELTLKGHLDKVSDMYAFNPVNVLYKSFNSEDTDPGLSQDTTESANDQGGNVTSPVDNITDSLEKTQMSPIKMRPTTRRGADDSKTRSSPYSRSRK
B2: HTP-1 (untagged, co-expressed) (natural protein, C. elegans, UniProt Q20305 1-352, looked up)
chain: MAPLETIYDESLNKSADSIDDKKWSKLFPRIVSDPDRSSNFMTRAIYVAFSAVLRNRNILGQEYFTKNYITEKLKCMTLCFRNPRSNQIAQLLRNAGDATKDGFLKEVSLVITNNEGDLEAIEVFSMKFIYFENGGVVARLSTDKNGQEDPHFAKLAQLVYEGGDSVRDQMVTIVRSVQFLCTKVLEPLPEEFTANFRLEYTNDAPSNFRIDGFEDSSTFYTLPDDIQSATIGHLRPGCHAANMECWSMLMSDSYEAELTLKRHLDKVSDRHGFNPVNVLYKSFNSEDSDTSLSQATTESVNDQGGNETSPVDDITESLEKAQMSPIQTRPTTRRGADGSKTRSSPYSRSCK

Columns and labels:
[1] = target: T1, HIM-3 part of the chimeric protein …; experiment: crystal structure
HIM-3-6His = target: T2, HIM-3-6His

Row | Binder | binding result [1] | stoichiometry N (HIM-3-6His)
1 | RHYGRVSSILDVAGS (peptide, UniProt O01820 649-663, looked up) [HTP-3 motif #4 (residues 649-663) as placed in the HIM-3 chimera] | binds | –
2 | B1 | – | 1 HTP-2 per HIM-3
3 | B2 | – | 1 HTP-1 per HIM-3
